# Positions count from the first letter of the chain named.
# B1: CD33/CD3 tandem diabody 23 (bispecific antibody)
# chain: DIQMTQSPSSLSASVGDRVTITCRSSTGAVTTSNYANWVQQKPGKAPKGLIGGTNKRAPGVPSRFSGSLIGTDFTLTISSLQPEDFATYYCALWYSNLWVFGQGTKVEIKGGSGGSQVQLVQSGAEVKKPGSSVKVSCKASGGTFSSYGISWVRQAPGQGLEWMGGIIPIFGSAHYAQKFQGRVTITADESTSTAYMELSSLRSEDTAVYYCAREYYYDSSEWAFDIWGQGTLVTVSSGGSGQSVLTQPPSASGTPGQRVTISCSGSSSNIGSNTVKWYQQLPGTAPKLLIYSNNQRSSGVPDRFSGSKSGSSASLAISGLQSEDEADYYCAAWDDSLNGYVFGGGTKLTVLGGSGGSEVQLVESGGGLVQPGGSLRLSCAASGFTFSTYAMNWVRQAPGKGLEWVGRIRSKYNNYATYYADSVKDRFTISRDDSKNSLYLQMNSLKTEDTAVYYCARHGNFGNSYVSWFAYWGQGTLVTVSS
# notes: Non-covalent homodimer; domain order 1; also called TandAb 23
# B2: CD33/CD3 tandem diabody 20 (bispecific antibody)
# chain: DIQMTQSPSSLSASVGDRVTITCRSSTGAVTTSNYANWVQQKPGKAPKGLIGGTNKRAPGVPSRFSGSLIGTDFTLTISSLQPEDFATYYCALWYSNLWVFGQGTKVEIKGGSGGSQVQLVQSGAEVKKPGASVKVSCKASGYTFTSYYMHWVRQAPGQGLEWMGIINPSGGSTSYAQKFQGRVTMTRDTSTSTVYMELSSLRSEDTAVYYCARDVVPAAIDYYGMDVWGQGTTVTVSSGGSGQSVLTQPPSASGTPGQRVTISCSGSSSNIGSNTVNWYQQLPGTAPKLLIYSDNQRPSGVPDRFSGSKSGSSASLAISGLQSDDEADYYCATWDDSLNGAVFGGGTKLTVLGGSGGSEVQLVESGGGLVQPGGSLRLSCAASGFTFSTYAMNWVRQAPGKGLEWVGRIRSKYNNYATYYADSVKDRFTISRDDSKNSLYLQMNSLKTEDTAVYYCARHGNFGNSYVSWFAYWGQGTLVTVSS
# notes: Non-covalent homodimer; domain order 1; also called TandAb 20
# B3: CD33/CD3 tandem diabody 01 (bispecific antibody)
# chain: DIQMTQSPSSLSASVGDRVTITCRSSTGAVTTSNYANWVQQKPGKAPKGLIGGTNKRAPGVPARFSGSGSGTDFTLTISSLQPEDFATYYCALWYSNLWVFGQGTKVEIKGGSGGSQVQLVQSGAEVKKPGASVKVSCKASGYTFTSYDINWVRQAPGQGLEWMGWMNPNSGNTGFAQKFQGRVTMTRDTSTSTVYMELSSLRSEDTAVYYCARDRANTDFSYGMDVWGQGTLVTVSSGGSGQSVLTQPPSASGTPGQRVTISCSGSRSNIGSNTVNWYQQLPGTAPKLLIYGNNQRPSGVPDRFSGSKSGSSASLAISGLQSEDEADYYCATWDDSLIGWVFGGGTKLTVLGGSGGSEVQLVESGGGLVQPGGSLRLSCAASGFTFSTYAMNWVRQAPGKGLEWVGRIRSKYNNYATYYADSVKDRFTISRDDSKNSLYLQMNSLKTEDTAVYYCARHGNFGNSYVSWFAYWGQGTLVTVSSAAAGSHHHHHH
# notes: Non-covalent homodimer; domain order 1 VL(CD3)-L1-VH(CD33)-L2-VL(CD33)-L3-VH(CD3); also called TandAb 01; tandem diabody 1
# B4: CD33/CD3 tandem diabody 04 (bispecific antibody)
# chain: B3 chain with F221Y, Y223L, S312T
# notes: Non-covalent homodimer; domain order 1; also called TandAb 04; tandem diabody 4
# B5: CD33/CD3 tandem diabody 15 (bispecific antibody)
# chain: DIQMTQSPSSLSASVGDRVTITCRSSTGAVTTSNYANWVQQKPGKAPKALIGGTNKRAPGVPSRFSGSLIGDKATLTISSLQPEDFATYYCALWYSNLWVFGQGTKVEIKGGSGGSQVQLVQSGAEVKKPGASVKVSCKASGYTFTSYDINWVRQAPGQGLEWMGWMNPNSGNTGFAQKFQGRVTMTRDTSTSTVYMELSSLRSEDTAVYYCARDRANTDYSFGMDVWGQGTLVTVSSGGSGQSVLTQPPSASGTPGQRVTISCSGSRSNIGSNTVNWYQQLPGTAPKLLIYGNNQRPSGVPDRFSGSKSGTSASLAISGLQSEDEADYYCATWDDSLIGWVFGGGTKLTVLGGSGGSEVQLVESGGGLVQPGGSLRLSCAASGFTFSTYAMNWVRQAPGKGLEWVGRIRSKYNNYATYYADSVKDRFTISRDDSKNSLYLQMNSLKTEDTAVYYCARHGNFGNSYVSYFAYWGQGTLVTVSSAAAGSHHHHHH
# notes: Non-covalent homodimer; domain order 1; also called TandAb 15
# B6: CD33/CD3 tandem diabody 02 (bispecific antibody)
# chain: B3 chain with N218V, F221Y, S222Y, S312T
# notes: Non-covalent homodimer; domain order 1; also called TandAb 02; tandem diabody 2
# B7: CD33/CD3 tandem diabody 09 (bispecific antibody)
# chain: B5 chain with A49G, Y221F, F223Y, T312S, Y469W
# notes: Non-covalent homodimer; domain order 1; also called TandAb 09; tandem diabody 9
# B8: CD33/CD3 tandem diabody 11 (bispecific antibody)
# chain: B5 chain with A49G, F223L, Y469W
# notes: Non-covalent homodimer; domain order 1; also called TandAb 11
# B9: CD33/CD3 tandem diabody 03 (bispecific antibody)
# chain: B3 chain with F221Y, Y223F, S312T
# notes: Non-covalent homodimer; domain order 1; also called TandAb 03; tandem diabody 3
# B10: CD33/CD3 tandem diabody 21 (bispecific antibody)
# chain: DIQMTQSPSSLSASVGDRVTITCRSSTGAVTTSNYANWVQQKPGKAPKALIGGTNKRAPGVPSRFSGSLIGDKATLTISSLQPEDFATYYCALWYSNLWVFGQGTKVEIKGGSGGSQVQLVQSGAEVKKPGSSVKVSCKASGGTFSSYAISWVRQAPGQGLEWMGGIYPIFGSANYAQKFQGRVTITADESTSTAYMELSSLRSEDTAVYYCAREYYYDSSEWAFDIWGQGTLVTVSSGGSGQSVLTQPPSASGTPGQRVTISCSGSSSNIGSNIVNWYQQLPGTAPKLLIYSNNQRPSGVPDRFSGSKSGTSASLAISGLQSEDEADYYCAAWDDSLKGYVFGGGTKLTVLGGSGGSEVQLVESGGGLVQPGGSLRLSCAASGFTFSTYAMNWVRQAPGKGLEWVGRIRSKYNNYATYYADSVKDRFTISRDDSKNSLYLQMNSLKTEDTAVYYCARHGNFGNSYVSYFAYWGQGTLVTVSSAAAGSHHHHHH
# notes: Non-covalent homodimer; domain order 1; also called TandAb 21
# B11: CD33/CD3 tandem diabody 22 (bispecific antibody)
# chain: B10 chain with A149G, Y168I, N175H, I275T, N277K, P298S, T312S, K339N
# notes: Non-covalent homodimer; domain order 1; also called TandAb 22
# B12: CD33/CD3 tandem diabody 24 (bispecific antibody)
# chain: DIQMTQSPSSLSASVGDRVTITCRSSTGAVTTSNYANWVQQKPGKAPKALIGGTNKRAPGVPSRFSGSLIGDKATLTISSLQPEDFATYYCALWYSNLWVFGQGTKVEIKGGSGGSQVQLVQSGAEVKKPGSSVKVSCKASGGTFDSYAISWVRQAPGQGLEWMGGIIPIFGSAHYSQKFQGRVTITADESTSTAYMELSSLRSEDTAVYYCAREYYYDSSEWAFDIWGQGTLVTVSSGGSGQSVLTQPPSASGTPGQRVTISCSGSSSNIGDNVVNWYQQLPGTAPKLLIYSTNKRPSGVPDRFSGSKSGSSASLAISGLQSEDEADYYCAAWDDSLSAYVFGGGTKLTVLGGSGGSEVQLVESGGGLVQPGGSLRLSCAASGFTFSTYAMNWVRQAPGKGLEWVGRIRSKYNNYATYYADSVKDRFTISRDDSKNSLYLQMNSLKTEDTAVYYCARHGNFGNSYVSYFAYWGQGTLVTVSSAAAGSHHHHHH
# notes: Non-covalent homodimer; domain order 1; also called TandAb 24
# Biological target: cynomolgus CD33 on CHO cells (cynomolgus monkey)
# Assay: flow cytometry; KD on CHO-cynomolgus CD33 cells divided by KD on CHO-human CD33 cells
row,KD ratio cynoCD33/ huCD33,Binder
1,1.9,B1
2,33.8,B2
3,0.7,B3
4,1.1,B4
5,1.1,B5
6,1.1,B6
7,1,B7
8,1.2,B8
9,0.6,B9
10,0.9,B10
11,0.6,B11
12,1.8,B12

# Biological target: T1, human CD3 on T cells (human, UniProt P07766 23-207)
# T1 sequence (P07766 23-207): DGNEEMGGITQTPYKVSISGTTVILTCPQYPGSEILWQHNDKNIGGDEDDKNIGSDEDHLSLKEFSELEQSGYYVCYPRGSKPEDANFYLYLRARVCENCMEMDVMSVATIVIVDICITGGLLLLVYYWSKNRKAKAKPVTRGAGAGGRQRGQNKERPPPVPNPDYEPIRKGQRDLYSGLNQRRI
# Assay: cell-based or functional assay
CD25 Induction EC50 (pM),CD69 Induction EC50 (pM),T cell Proliferation in PBMC EC50 (pM),Binder
41 pM,17 pM,37 pM,B1
98 pM,75 pM,19 pM,B2
92 pM,91 pM,89 pM,B3
94 pM,62 pM,44 pM,B4
6 pM,7 pM,7 pM,B5
42 pM,27 pM,4 pM,B6
11 pM,7 pM,9 pM,B7
11 pM,5 pM,6 pM,B8
117 pM,87 pM,63 pM,B9
,225 pM,500 pM,B10
10 pM,4 pM,7 pM,B11
,57 pM,264 pM,B12

# Biological target: T2, human CD33 on cells (human, UniProt P20138 18-364)
# T2 construct: whole, on cells; also called huCD33
# T2 sequence (P20138 18-364): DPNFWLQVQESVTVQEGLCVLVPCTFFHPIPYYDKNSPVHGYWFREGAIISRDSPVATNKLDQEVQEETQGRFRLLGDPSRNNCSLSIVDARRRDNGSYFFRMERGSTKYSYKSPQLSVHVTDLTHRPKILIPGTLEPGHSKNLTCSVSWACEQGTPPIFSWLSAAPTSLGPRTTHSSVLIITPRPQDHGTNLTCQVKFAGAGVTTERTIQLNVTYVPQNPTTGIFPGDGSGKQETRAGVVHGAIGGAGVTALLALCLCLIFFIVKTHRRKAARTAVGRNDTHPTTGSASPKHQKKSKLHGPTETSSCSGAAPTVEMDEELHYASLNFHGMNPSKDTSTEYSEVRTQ
# Assay: flow cytometry, HL-60 cells
row,Kd,Binder
1,0.4 nM,B1
2,4.1 nM,B2
3,0.6 nM,B3
4,0.5 nM,B4
5,0.4 nM,B5
6,0.2 nM,B6
7,0.5 nM,B7
8,0.3 nM,B8
9,1.1 nM,B9
10,9.7 nM,B10
11,0.7 nM,B11
12,5.6 nM,B12

# Biological target: T2, human CD33 on cells
# Assay: flow cytometry, titration on U-937 cells
row,Kd,Binder
1,5.1 nM,B1
2,7.2 nM,B2
3,7.1 nM,B3
4,1.7 nM,B4
5,0.9 nM,B5
6,0.9 nM,B6
7,2.2 nM,B7
8,0.6 nM,B8
9,8.9 nM,B9
10,80.2 nM,B10
11,8.6 nM,B11
12,39.5 nM,B12

# Biological target: T2, human CD33 on cells
# Assay: flow cytometry, titration on HL-60 cells
row,Kd,Binder
1,0.4 nM,B1
2,4.1 nM,B2
3,0.6 nM,B3
4,0.5 nM,B4
5,0.4 nM,B5
6,0.2 nM,B6
7,0.5 nM,B7
8,0.3 nM,B8
9,1.1 nM,B9
10,9.7 nM,B10
11,0.7 nM,B11
12,5.6 nM,B12

# Biological target: T1, human CD3 on T cells
# Assay: flow cytometry, titration on human CD3+ T cells (Jurkat per paragraph 124/paragraph 125)
row,Kd,Binder
1,97.2 nM,B1
2,144 nM,B2
3,94.2 nM,B3
4,79.3 nM,B4
5,1.3 nM,B5
6,69.8 nM,B6
7,2.4 nM,B7
8,2.6 nM,B8
9,81.9 nM,B9
10,2.1 nM,B10
11,4.1 nM,B11
12,2.3 nM,B12

# Biological target: T2, human CD33 on cells
# Assay: cell-based or functional assay
row,Binder,EC50 on HL-60 [pM] (cytotoxicity)
1,B1,2.8 pM
2,B2,10 pM
3,B3,1.9 pM
4,B4,1.8 pM
5,B5,1.8 pM
6,B6,0.5 pM
7,B7,6.8 pM
8,B8,5.9 pM
9,B9,3.6 pM
10,B10,7.6 pM
11,B11,3.2 pM
12,B12,9.6 pM

# Biological target: T2, human CD33 on cells
# Assay: flow cytometry, titration on KG-1 cells
row,Kd,Binder
1,1 nM,B1
2,7 nM,B2
3,0.9 nM,B3
4,0.5 nM,B4
5,0.3 nM,B5
6,0.3 nM,B6
7,0.3 nM,B7
8,0.5 nM,B8
9,1.8 nM,B9
10,25.1 nM,B10
11,2 nM,B11
12,12.4 nM,B12

# Biological target: T1, human CD3 on T cells
# Assay: flow cytometry, human T-cells (as headed in Table 10)
row,Kd,Binder
1,97.2 nM,B1
2,144 nM,B2
3,94.2 nM,B3
4,79.3 nM,B4
5,1.3 nM,B5
6,69.8 nM,B6
7,2.4 nM,B7
8,2.6 nM,B8
9,81.9 nM,B9
10,2.1 nM,B10
11,4.1 nM,B11
12,2.3 nM,B12

# Reference: patent EP4813396A2 (Amphivena Therapeutics, Inc., dated 2026)
